PMC9688318, “Construction of a Versatile, Programmable RNA-Binding Protein Using Designer PPR Proteins and Its Application for Splicing Control in Mammalian Cells”

Columns and labels:
PPR2.0 t8 [1] = target: T1, PPR2.0 t8 (synthetic); assay: 20 mM Tris-HCl pH 8.0, 150 mM NaCl, 0.5% NP-40, 1 mM DTT; conditions: tags: N-terminal NanoLuc, C-terminal His6, kept; label: biotin
T1 chain: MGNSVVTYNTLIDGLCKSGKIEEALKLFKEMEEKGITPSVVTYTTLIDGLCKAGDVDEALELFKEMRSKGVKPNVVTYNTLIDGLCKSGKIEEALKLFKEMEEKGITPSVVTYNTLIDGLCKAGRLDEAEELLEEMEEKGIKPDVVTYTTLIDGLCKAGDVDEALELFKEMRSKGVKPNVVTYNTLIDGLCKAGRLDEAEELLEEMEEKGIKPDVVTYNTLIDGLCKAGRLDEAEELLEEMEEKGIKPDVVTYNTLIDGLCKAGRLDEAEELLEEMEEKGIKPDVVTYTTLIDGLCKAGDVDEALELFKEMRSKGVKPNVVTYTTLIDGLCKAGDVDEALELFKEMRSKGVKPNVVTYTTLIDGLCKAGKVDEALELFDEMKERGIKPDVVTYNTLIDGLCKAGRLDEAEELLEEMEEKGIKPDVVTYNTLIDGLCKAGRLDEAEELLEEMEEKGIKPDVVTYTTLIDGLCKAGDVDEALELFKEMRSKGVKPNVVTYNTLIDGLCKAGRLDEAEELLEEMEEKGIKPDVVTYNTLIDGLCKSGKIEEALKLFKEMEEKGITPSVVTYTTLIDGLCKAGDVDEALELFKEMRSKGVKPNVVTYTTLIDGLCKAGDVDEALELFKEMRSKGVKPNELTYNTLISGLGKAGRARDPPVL

PPR2.0 t8 [2] = target: T1, PPR2.0 t8; assay: EMSA; 20 mM Tris-HCl pH 8.0, 150 mM NaCl, 0.5% NP-40, 1 mM DTT, 1 mM EDTA; 20 nM RNA; conditions: tags: N-terminal SBP, C-terminal His6, kept; label: biotin
PPR2.0 t15 [3] = target: T2, PPR2.0 t15 (synthetic); assay: 20 mM Tris-HCl pH 8.0, 150 mM NaCl, 0.5% NP-40, 1 mM DTT; conditions: tags: N-terminal NanoLuc, C-terminal His6, kept; label: biotin
T2 chain: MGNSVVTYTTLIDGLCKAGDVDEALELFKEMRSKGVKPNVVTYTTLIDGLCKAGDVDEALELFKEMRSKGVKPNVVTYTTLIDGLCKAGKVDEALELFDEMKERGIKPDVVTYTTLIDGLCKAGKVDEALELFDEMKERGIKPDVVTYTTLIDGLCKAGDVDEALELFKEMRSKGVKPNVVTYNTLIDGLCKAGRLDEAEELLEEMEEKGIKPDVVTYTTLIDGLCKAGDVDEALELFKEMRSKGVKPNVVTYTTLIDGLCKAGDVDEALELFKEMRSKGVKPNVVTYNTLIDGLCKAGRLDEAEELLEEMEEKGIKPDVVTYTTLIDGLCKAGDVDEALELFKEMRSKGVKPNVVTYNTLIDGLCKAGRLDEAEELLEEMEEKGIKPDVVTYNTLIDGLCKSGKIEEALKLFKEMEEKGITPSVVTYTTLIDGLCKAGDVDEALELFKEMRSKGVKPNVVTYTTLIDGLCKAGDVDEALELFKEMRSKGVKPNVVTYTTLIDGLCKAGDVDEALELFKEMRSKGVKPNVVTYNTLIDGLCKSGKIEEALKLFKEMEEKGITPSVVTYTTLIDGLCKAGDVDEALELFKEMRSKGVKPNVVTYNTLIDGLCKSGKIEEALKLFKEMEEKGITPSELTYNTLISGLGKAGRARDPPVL

PPR2.0 t15 [4] = target: T2, PPR2.0 t15; assay: EMSA; 20 mM Tris-HCl pH 8.0, 150 mM NaCl, 0.5% NP-40, 1 mM DTT, 1 mM EDTA; 20 nM RNA; conditions: tags: N-terminal SBP, C-terminal His6, kept; label: biotin
PPR2.0 t11 [5] = target: T3, PPR2.0 t11 (synthetic); assay: 20 mM Tris-HCl pH 8.0, 150 mM NaCl, 0.5% NP-40, 1 mM DTT; conditions: tags: N-terminal NanoLuc, C-terminal His6, kept; label: biotin
T3 chain: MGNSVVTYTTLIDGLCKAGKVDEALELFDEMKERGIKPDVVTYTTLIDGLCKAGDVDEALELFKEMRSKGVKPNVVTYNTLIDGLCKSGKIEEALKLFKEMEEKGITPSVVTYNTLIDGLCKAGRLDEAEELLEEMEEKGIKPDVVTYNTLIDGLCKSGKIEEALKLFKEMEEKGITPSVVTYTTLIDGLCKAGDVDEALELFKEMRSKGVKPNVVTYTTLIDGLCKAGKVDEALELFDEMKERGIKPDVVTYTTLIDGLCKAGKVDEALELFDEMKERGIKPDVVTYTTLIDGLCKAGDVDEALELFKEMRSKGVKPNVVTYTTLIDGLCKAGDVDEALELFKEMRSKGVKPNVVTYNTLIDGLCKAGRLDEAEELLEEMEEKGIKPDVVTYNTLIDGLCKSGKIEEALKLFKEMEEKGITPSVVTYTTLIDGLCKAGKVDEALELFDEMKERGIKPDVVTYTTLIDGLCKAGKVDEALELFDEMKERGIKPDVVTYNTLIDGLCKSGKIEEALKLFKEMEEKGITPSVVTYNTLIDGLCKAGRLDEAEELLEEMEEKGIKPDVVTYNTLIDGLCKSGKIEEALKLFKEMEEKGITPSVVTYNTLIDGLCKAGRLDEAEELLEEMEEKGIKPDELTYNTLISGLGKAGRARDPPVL

PPR2.0 t11 [6] = target: T3, PPR2.0 t11; assay: EMSA; 20 mM Tris-HCl pH 8.0, 150 mM NaCl, 0.5% NP-40, 1 mM DTT, 1 mM EDTA; 20 nM RNA; conditions: tags: N-terminal SBP, C-terminal His6, kept; label: biotin
PPR2.0 t5 [7] = target: T4, PPR2.0 t5 (synthetic); assay: 20 mM Tris-HCl pH 8.0, 150 mM NaCl, 0.5% NP-40, 1 mM DTT; conditions: tags: N-terminal NanoLuc, C-terminal His6, kept; label: biotin
T4 chain: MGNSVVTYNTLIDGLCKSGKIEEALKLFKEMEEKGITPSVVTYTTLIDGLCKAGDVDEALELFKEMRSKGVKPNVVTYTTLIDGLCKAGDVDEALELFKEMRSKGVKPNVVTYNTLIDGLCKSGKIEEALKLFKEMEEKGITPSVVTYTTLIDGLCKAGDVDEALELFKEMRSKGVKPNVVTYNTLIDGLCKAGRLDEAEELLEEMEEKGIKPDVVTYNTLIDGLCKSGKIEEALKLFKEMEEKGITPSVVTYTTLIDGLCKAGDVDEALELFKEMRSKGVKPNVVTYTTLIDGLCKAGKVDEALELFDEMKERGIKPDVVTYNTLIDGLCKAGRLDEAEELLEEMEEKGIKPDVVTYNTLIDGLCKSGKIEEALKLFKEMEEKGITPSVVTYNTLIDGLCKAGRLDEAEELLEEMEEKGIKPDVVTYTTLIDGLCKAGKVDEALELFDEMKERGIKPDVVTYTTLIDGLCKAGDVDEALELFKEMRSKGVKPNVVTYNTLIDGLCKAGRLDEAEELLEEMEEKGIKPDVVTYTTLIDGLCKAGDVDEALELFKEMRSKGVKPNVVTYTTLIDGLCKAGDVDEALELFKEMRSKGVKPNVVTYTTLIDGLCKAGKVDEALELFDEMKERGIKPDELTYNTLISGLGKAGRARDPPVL

PPR2.0 t5 [8] = target: T4, PPR2.0 t5; assay: EMSA; 20 mM Tris-HCl pH 8.0, 150 mM NaCl, 0.5% NP-40, 1 mM DTT, 1 mM EDTA; 20 nM RNA; conditions: tags: N-terminal SBP, C-terminal His6, kept; label: biotin
PPR2.0 t4 [9] = target: T5, PPR2.0 t4 (synthetic); assay: 20 mM Tris-HCl pH 8.0, 150 mM NaCl, 0.5% NP-40, 1 mM DTT; conditions: tags: N-terminal NanoLuc, C-terminal His6, kept; label: biotin
T5 chain: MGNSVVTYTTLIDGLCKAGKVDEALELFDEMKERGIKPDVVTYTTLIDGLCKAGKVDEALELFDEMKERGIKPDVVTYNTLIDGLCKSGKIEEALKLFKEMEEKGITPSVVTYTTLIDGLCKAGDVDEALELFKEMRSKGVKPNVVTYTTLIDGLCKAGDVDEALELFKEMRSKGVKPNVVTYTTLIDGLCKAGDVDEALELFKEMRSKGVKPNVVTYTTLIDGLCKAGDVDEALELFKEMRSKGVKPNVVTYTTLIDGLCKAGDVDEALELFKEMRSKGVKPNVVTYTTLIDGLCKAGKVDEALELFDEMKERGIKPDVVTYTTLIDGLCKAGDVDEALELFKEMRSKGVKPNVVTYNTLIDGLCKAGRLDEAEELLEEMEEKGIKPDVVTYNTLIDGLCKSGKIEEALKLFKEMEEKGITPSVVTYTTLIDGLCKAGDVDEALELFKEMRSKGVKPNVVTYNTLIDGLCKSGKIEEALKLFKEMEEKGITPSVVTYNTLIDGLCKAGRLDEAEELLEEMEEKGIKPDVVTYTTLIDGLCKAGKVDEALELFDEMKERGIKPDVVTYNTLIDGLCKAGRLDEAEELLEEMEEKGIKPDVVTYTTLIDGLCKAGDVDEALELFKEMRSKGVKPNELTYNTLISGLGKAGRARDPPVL

PPR2.0 t4 [10] = target: T5, PPR2.0 t4; assay: EMSA; 20 mM Tris-HCl pH 8.0, 150 mM NaCl, 0.5% NP-40, 1 mM DTT, 1 mM EDTA; 20 nM RNA; conditions: tags: N-terminal SBP, C-terminal His6, kept; label: biotin
PPR2.0 t14 [11] = target: T6, PPR2.0 t14 (synthetic); assay: 20 mM Tris-HCl pH 8.0, 150 mM NaCl, 0.5% NP-40, 1 mM DTT; conditions: tags: N-terminal NanoLuc, C-terminal His6, kept; label: biotin
T6 chain: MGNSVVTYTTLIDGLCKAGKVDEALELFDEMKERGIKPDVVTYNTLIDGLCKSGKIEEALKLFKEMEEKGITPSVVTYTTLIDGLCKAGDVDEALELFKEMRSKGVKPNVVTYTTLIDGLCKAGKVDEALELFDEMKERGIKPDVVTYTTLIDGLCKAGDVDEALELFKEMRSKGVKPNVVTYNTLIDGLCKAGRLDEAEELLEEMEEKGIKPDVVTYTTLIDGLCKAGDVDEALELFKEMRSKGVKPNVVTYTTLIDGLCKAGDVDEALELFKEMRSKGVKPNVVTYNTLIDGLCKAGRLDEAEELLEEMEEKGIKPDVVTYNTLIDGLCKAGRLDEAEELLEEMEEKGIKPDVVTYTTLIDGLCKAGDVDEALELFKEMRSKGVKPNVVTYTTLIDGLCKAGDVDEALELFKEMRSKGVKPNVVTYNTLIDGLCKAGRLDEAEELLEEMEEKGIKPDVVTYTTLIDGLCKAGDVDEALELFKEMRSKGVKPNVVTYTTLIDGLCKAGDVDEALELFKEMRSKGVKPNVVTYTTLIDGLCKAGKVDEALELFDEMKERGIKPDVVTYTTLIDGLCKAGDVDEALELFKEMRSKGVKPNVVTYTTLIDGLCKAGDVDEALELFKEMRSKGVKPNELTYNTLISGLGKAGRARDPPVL

PPR2.0 t14 [12] = target: T6, PPR2.0 t14; assay: EMSA; 20 mM Tris-HCl pH 8.0, 150 mM NaCl, 0.5% NP-40, 1 mM DTT, 1 mM EDTA; 20 nM RNA; conditions: tags: N-terminal SBP, C-terminal His6, kept; label: biotin

B1: Probe_t8 (ssRNA)
RNA: GACAUGCCACUAUUUAAGUUAUCAAGACUG
In the case of B1, the binding signal (PPR2.0 t8 [1]) is reported as 4.7e+07 RBP-ELISA luminescence, CPS and the Kd (PPR2.0 t8 [2]) is reported as 1.95 nM.

B2: Probe_t15 (ssRNA)
RNA: GACAUGCAAGGAUAAUAUCAAACACGACUG
B2 was tested, and the binding signal (PPR2.0 t15 [3]) was 2.84e+07 RBP-ELISA luminescence, CPS and the Kd (PPR2.0 t15 [4]) was 41 nM.

B3: Probe_t11 (ssRNA)
RNA: GACAUGCGACUCAGGAAUCGGCUCUGACUG
For B3, the binding signal (PPR2.0 t11 [5]) was 3.78e+07 RBP-ELISA luminescence, CPS and the Kd (PPR2.0 t11 [6]) was 63.3 nM.

B4: Probe_t5 (ssRNA)
RNA: GACAUGCCAACAUCAGUCUGAUAAGGACUG
For B4, the binding signal (PPR2.0 t5 [7]) was 1.67e+07 RBP-ELISA luminescence, CPS and the Kd (PPR2.0 t5 [8]) was 167 nM.

B5: Probe_t4 (ssRNA)
RNA: GACAUGCGGCAAAAAGAUCACUGUAGACUG
For B5, the binding signal (PPR2.0 t4 [9]) was 5.98e+07 RBP-ELISA luminescence, CPS and the Kd (PPR2.0 t4 [10]) was 2.57 nM.

B6: Probe_t14 (ssRNA)
RNA: GACAUGCGCAGAUAAUUAAUAAGAAGACUG
With B6 the binding signal (PPR2.0 t14 [11]) was 1.33e+07 RBP-ELISA luminescence, CPS and the Kd (PPR2.0 t14 [12]) was 197 nM.
